Consider 55 variants from PMC10244618.

Several values for one entry are separate records, joined by “and”; a condition that tells them apart may be missing. Identical values can stand only once.

The chains are these.
B1: NF2 (merlin) isoform 7, human, full length (507 aa, lacks exons 2-3 = isoform-1 residues 39-121; exon-16 C-terminus), P35240-4 (parent)
chain: MAGAIASRMSFSSLKRKQPKTFTVRIVTMDAEMEFNCEVKKQILDEKIYCPPEASVLLASYAVQAKYGDYDPSVHKRGFLAQEELLPKRVINLYQMTPEMWEERITAWYAEHRGRARDEAEMEYLKIAQDLEMYGVNYFAIRNKKGTELLLGVDALGLHIYDPENRLTPKISFPWNEIRNISYSDKEFTIKPLDKKIDVFKFNSSKLRVNKLILQLCIGNHDLFMRRRKADSLEVQQMKAQAREEKARKQMERQRLAREKQMREEAERTRDELERRLLQMKEEATMANEALMRSEETADLLAEKAQITEEEAKLLAQKAAEAEQEMQRIKATAIRTEEEKRLMEQKVLEAEVLALKMAEESERRAKEADQLKQDLQEAREAERRAKQKLLEIATKPTYPPMNPIPAPLPPDIPSFNLIGDSLSFDFKDTDMKRLSMEIEKEKVEYMEKSKHLQEQLNELKTEIEALKLKERETALDILHNENSDRGGSSKHNTIKKPQAQGRRPICI

The variants in the first assay derive from B1. As to the kind of experiment: reverse yeast two-hybrid deep mutational scan (rY2H-seq): NF2 isoform 7 mutant library as bait mated with wild-type prey strains; selection on medium lacking adenine for non-interacting pairs; NextSeq paired-end sequencing; enrichment vs …. The note with it: with EMILIN1 (elastin microfibril interfacer 1), Q9Y6C2; yeast diploids after mating (RBait_S3 x RPrey_S3), 30 °C, selection for reporter genes on NB agar; human tyrosine kinase ABL2 co-expressed as the active kinase …; HIGHER = WEAKER BINDING (the opposite of display enrichments): higher = stronger loss of interaction: reverse Y2H selects yeast in which bait and prey do NOT interact (growth without adenine), so a …; hits-only table; scale: rY2H score; numbering: uniprot, sequence starts at 1.
Take T285L: the enrichment is 2.39 and 4.
Same read-out and setting: for G146A the value was 3.91 and 4.27; for P409A, 3.21 and 3.14; for E367A, 3.25.
The same measure, in the same setting: for E367L the value was 1.94; for E367K, 1.96; for N143I, 5.68 and 2.91.
Still for that read-out and setting: for E382K the value was 1.79 and 2.41.
With I307Y, the enrichment worked out at 2.93.
Still for that read-out and setting: for I307L the value was 3.37.
Still for that read-out and setting: for K372E the value was 4.46 and 4.21; for A331K, 4.31.
The same measure, in the same setting: as for A331E, the figure is 2.11; as for K330A, 2.6.
As for A287T, the enrichment amounted to 1.8.
Still for that read-out and setting: as for A128V, the figure is 1.56; as for H159L, 2.93; as for R77W, 1.39.
Still for that read-out and setting: as for R363E, the figure is 3.15; as for P403R, 3.53.
With T168A, the enrichment was 2.55.
The same measure, in the same setting: as for E377A, the figure is 4.03.
On the same count and under the same terms, for K304W the value was 13.1 and 10.8; for S483A, 3.86 and 4.2; for L315W, 7.24.
Still for that read-out and setting: for L315K the value was 4.2; for W175E, 6.77; for W175A, 4.36.
Regarding A240T, the enrichment is 1.45.
Still for that read-out and setting: for R379E the value was 3.11 and 8.92.
Same read-out and setting: as for R379A, the figure is 2.9; as for R335C, 2.88; as for R335E, 2.52.
The same measure, in the same setting: for F79A the value was 4.71.
D162P: the enrichment was found to be 2.72.
Turning to R471E, the enrichment came to 3.88.
On to R364K, for which the enrichment came to 2.07.
The same measure, in the same setting: as for R364E, the figure is 5.32; as for L342T, 4.63.
In the case of E359K, the enrichment was determined as 1.99.
Still for that read-out and setting: for A350K the value was 4.8 and 3.36.

Staying with this assay, now noted: with PIK3R3 (phosphatidylinositol 3-kinase regulatory subunit gamma), Q92569; yeast diploids after mating (RBait_S3 x RPrey_S3), 30 °C, selection for reporter genes on NB agar; human tyrosine kinase ABL2 co-expressed as the active kinase …; HIGHER = WEAKER BINDING (the opposite of display enrichments): higher = stronger loss of interaction: reverse Y2H selects yeast in which bait and prey do NOT interact (growth without adenine), so a …; hits-only table; scale: rY2H score; numbering: uniprot, sequence starts at 1.
As for T285L, the enrichment worked out at 6.05.
Same read-out and setting: as for P409L, the figure is 1.63; as for E367A, 2.99; as for H159L, 6.72.
Same read-out and setting: as for R363E, the figure is 4.76; as for P403R, 3.96.
The same measure, in the same setting: as for P405Q, the figure is 4.58; as for P405E, 1.85 and 3.91.
For T168A, the enrichment turned out to be 6.22.
The same measure, in the same setting: as for F415K, the figure is 2.73.

Staying with this assay, now noted: with EMILIN1 (elastin microfibril interfacer 1), Q9Y6C2; yeast diploids after mating (RBait_S3 x RPrey_S3), 30 °C, selection for reporter genes on NB agar; human ABL2 co-expressed as the kinase-dead K35M mutant …; HIGHER = WEAKER BINDING (the opposite of display enrichments): higher = stronger loss of interaction: reverse Y2H selects yeast in which bait and prey do NOT interact (growth without adenine), so a …; hits-only table; scale: rY2H score; numbering: uniprot, sequence starts at 1.
P409A: the enrichment was 2.09.
On the same count and under the same terms, as for P409L, the figure is 2.46; as for E367A, 1.72.
On the same count and under the same terms, as for E367L, the figure is 6.79; as for E382K, 2.77; as for E382G, 1.92.
The same measure, in the same setting: for D430K the value was 3.35; for D430L, 1.61; for K372E, 5.53 and 3.24.
Take N402T: the enrichment turned out to be 1.9.
On to K427T, for which the enrichment is 2.98.
Take P403R: the enrichment turned out to be 5.14.
With E360K, the enrichment is 3.02.
Consider E360G, for which the enrichment was 2.14.
In the case of P405Q, the enrichment was 3.57 and 2.37.
On to P405E, for which the enrichment came to 1.6.
Same read-out and setting: as for F415K, the figure is 2.05.
Still for that read-out and setting: as for S483A, the figure is 2.27.
Still for that read-out and setting: as for R379A, the figure is 2.05; as for R379L, 2.11.
For T429L, the enrichment came to 1.9.
Same read-out and setting: for L422K the value was 3.21.
Still for that read-out and setting: for R471E the value was 8.81.
Still for that read-out and setting: for R364E the value was 1.5; for E359K, 1.99.
A350K: the enrichment worked out at 1.95.

The assay is the same for the next values; noted with them: with KDM1A (lysine-specific histone demethylase 1A; the table's label AOF2 is a gene synonym of KDM1A), O60341; yeast diploids after mating (RBait_S3 x RPrey_S3), 30 °C, selection for reporter genes on NB agar; human ABL2 co-expressed as the kinase-dead K35M mutant …; HIGHER = WEAKER BINDING (the opposite of display enrichments): higher = stronger loss of interaction: reverse Y2H selects yeast in which bait and prey do NOT interact (growth without adenine), so a …; hits-only table; scale: rY2H score; numbering: uniprot, sequence starts at 1.
Turning to P409A, the enrichment is 4.62.
Still for that read-out and setting: for P409L the value was 1.48 and 1.82.
Same read-out and setting: for I307L the value was 2.24 and 1.83.
Same read-out and setting: as for D430L, the figure is 3.75.
In the case of K372E, the enrichment came to 1.68.
On the same count and under the same terms, as for A331K, the figure is 2.19; as for K330A, 1.85; as for E360G, 1.54.
Same read-out and setting: as for P405E, the figure is 2.38.
The same measure, in the same setting: for F415K the value was 1.8 and 3.49; for K304W, 17.
In the case of S483A, the enrichment stood at 2.24.
The same measure, in the same setting: as for R379E, the figure is 6.74.
The same measure, in the same setting: for R379A the value was 2.
On the same count and under the same terms, as for L422K, the figure is 1.93; as for R364K, 3.56.
Take L342T: the enrichment is 2.83 and 2.72.
On the same count and under the same terms, as for E359K, the figure is 7.74.

The assay is the same for the next values; noted with them: with KDM1A (lysine-specific histone demethylase 1A; the table's label AOF2 is a gene synonym of KDM1A), O60341; yeast diploids after mating (RBait_S3 x RPrey_S3), 30 °C, selection for reporter genes on NB agar; human tyrosine kinase ABL2 co-expressed as the active kinase …; HIGHER = WEAKER BINDING (the opposite of display enrichments): higher = stronger loss of interaction: reverse Y2H selects yeast in which bait and prey do NOT interact (growth without adenine), so a …; hits-only table; scale: rY2H score; numbering: uniprot, sequence starts at 1.
For P409A, the enrichment was 3.57 and 4.04.
Still for that read-out and setting: for P409L the value was 3.03.
The same measure, in the same setting: as for E367A, the figure is 4.1 and 4.23.
The same measure, in the same setting: as for I307L, the figure is 4.9; as for A331K, 4.83; as for K330A, 4.79.
As for H159L, the enrichment is 4.15 and 7.93.
On the same count and under the same terms, as for R379E, the figure is 5.6; as for R335C, 1.78 and 2.82.

The assay is the same for the next values; noted with them: with NF2 C-terminal domain (wild type; homomeric NF2-NF2 interaction), P35240; yeast diploids after mating (RBait_S3 x RPrey_S3), 30 °C, selection for reporter genes on NB agar; human ABL2 co-expressed as the kinase-dead K35M mutant …; HIGHER = WEAKER BINDING (the opposite of display enrichments): higher = stronger loss of interaction: reverse Y2H selects yeast in which bait and prey do NOT interact (growth without adenine), so a …; hits-only table; partner unresolved; scale: rY2H score; numbering: uniprot, sequence starts at 1.
With P409L, the enrichment was 3.35 and 2.55.
For E382K, the enrichment is 1.47 and 2.48 and 1.86.
Still for that read-out and setting: for A331E the value was 1.53.
A128V: the enrichment is 1.47.
P405E: the enrichment is 1.76.
On to L315K, for which the enrichment came to 1.46.
On the same count and under the same terms, as for W175E, the figure is 1.97; as for W175A, 2.08; as for R379E, 1.99.
Same read-out and setting: as for R364K, the figure is 2.52; as for R364E, 2.76.
